Reference: publication PMC6504076, “An in vivo half-life extended prolactin receptor antagonist can prevent STAT5 phosphorylation” (PLoS ONE, 2019)

Assays:
[1] = target: mouse serum albumin (mouse) (UniProt P07724); experiment: SPR; Biacore 3000; mouse serum albumin immobilized on CM5 chip (approx. 800 RU); dilution series of ABD-PrlRA injected; 25°C, 40 μl/min; 1:1 Langmuir model
[2] = target: prolactin receptor (PrlR), extracellular domain (UniProt P16471); experiment: SPR; Biacore 3000; PrlR immobilized on CM5 chip (approx. 300 RU); dilution series of analyte injected; 25°C, 40 μl/min; PBS with 0.05% Tween-20; 1:1 Langmuir model
[3] = target: prolactin receptor (PrlR), extracellular domain (UniProt P16471); experiment: SPR; Biacore 3000; extracellular domain of PrlR immobilized; ABD-PrlRA dilution series with HSA added to 400 nM, incubated 4 h at 4°C; PBS with 0.05% Tween-20 and HSA as running buffer; 25°C, 40 μl/min; 1:1 Langmuir model (called an approximation)
[4] = target: prolactin receptor (PrlR), extracellular domain (UniProt P16471); experiment: as above; remark: listed apart in the source
[5] = target: T1, prolactin receptor (PrlR), extracellular domain (UniProt P16471 25-234); experiment: SPR; Biacore 3000; PrlR immobilized on CM5 chip (approx. 300 RU); dilution series of analyte injected; 25°C, 40 μl/min; PBS with 0.05% Tween-20; 1:1 Langmuir model; settings: both partners purified
T1 construct: prolactin receptor, extracellular domain, from Sino Biological; No catalogue number printed; source: bought: Sino Biological
T1 sequence (looked up): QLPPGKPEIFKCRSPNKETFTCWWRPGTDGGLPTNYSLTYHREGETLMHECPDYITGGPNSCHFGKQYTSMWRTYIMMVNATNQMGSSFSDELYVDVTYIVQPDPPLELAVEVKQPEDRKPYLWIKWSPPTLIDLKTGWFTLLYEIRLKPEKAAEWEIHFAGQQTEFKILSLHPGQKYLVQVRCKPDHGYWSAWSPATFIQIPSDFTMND

[6] = target: T1, prolactin receptor (PrlR), …; experiment: as above; settings: both partners purified; remark: listed apart in the source

Sequence of mouse serum albumin (mouse) (P07724 25-608): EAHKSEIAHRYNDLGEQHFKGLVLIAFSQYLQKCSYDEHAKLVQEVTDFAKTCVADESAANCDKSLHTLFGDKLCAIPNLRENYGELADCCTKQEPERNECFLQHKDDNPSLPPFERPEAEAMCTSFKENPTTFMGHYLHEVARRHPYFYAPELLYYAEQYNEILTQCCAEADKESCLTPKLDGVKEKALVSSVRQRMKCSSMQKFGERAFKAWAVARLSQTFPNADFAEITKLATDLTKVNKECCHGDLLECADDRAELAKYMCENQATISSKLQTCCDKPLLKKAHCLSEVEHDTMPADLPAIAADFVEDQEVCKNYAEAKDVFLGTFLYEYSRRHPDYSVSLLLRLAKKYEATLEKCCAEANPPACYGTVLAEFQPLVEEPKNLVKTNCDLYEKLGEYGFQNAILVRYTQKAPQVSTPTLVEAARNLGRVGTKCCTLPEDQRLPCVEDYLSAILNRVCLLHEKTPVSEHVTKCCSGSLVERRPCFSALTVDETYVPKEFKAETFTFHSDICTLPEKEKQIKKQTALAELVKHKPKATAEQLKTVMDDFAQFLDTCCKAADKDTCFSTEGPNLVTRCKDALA

ABD-PrlRA (fusion of an N-terminal albumin binding domain ABD035 and the prolactin receptor antagonist PrlRA) (from UniProt P01236 29-227)
Kd [1]: 0.38 nM | koff [1]: 0.0012 s⁻¹ | kon [1]: 3.1e+06 M⁻¹ s⁻¹ | Kd [2]: 2.3 nM | koff [2]: 0.00074 s⁻¹ | kon [2]: 330000 M⁻¹ s⁻¹

complex of HSA and ABD-PrlRA (from UniProt P02768 25-609; P01236 29-227)
Kd [3]: 21 nM | koff [3]: 0.00078 s⁻¹ | kon [3]: 39000 M⁻¹ s⁻¹ | Kd [4]: 23 nM

B1: prolactin (Prl), produced in house (ligand, human)
chain: MGSSLPICPGGAARCQVTLRDLFDRAVVLSHYIHNLSSEMFSEFDKRYTHGRGFITKAINSCHTSSLATPEDKEQAQQMNQKDFLSLIVSILRSWNEPLYHLVTEVRGMQEAPEAILSKAVEIEEQTKRLLEGMELIVSQVHPETKENEIYPVWSGLPSLQMADEESRLSAYYNLLHCLRRDSHKIDNYLKLLKCRIIHNNNC
notes: prolactin, human; the Prl gene itself is not separately called human; also called in house produced Prl
Kd [5]: 8.4 ± 0.2 nM | koff [5]: 0.0012 s⁻¹ | kon [5]: 140000 M⁻¹ s⁻¹

B2: prolactin receptor antagonist PrlRA (ligand, human)
chain: MGSSRSQVTLRDLFDRAVVLSHYIHNLASEMFSEFDKRYTHGRGFITKAINSCHTSSLATPEDKEQALQMNQKDFLSLIVSILRSWNEPLYHLVTEVRGMQEAPEAILSKAVEIEEQTKRLLERMELIVSQVHPETKENEIYPVWSGLPSLQMADEESRLSAYYNLLHCLRRDSHKIDNYLKLLRCRIIHNNNC
Kd [5]: 3.4 ± 0.5 nM | koff [5]: 0.00088 s⁻¹ | kon [5]: 260000 M⁻¹ s⁻¹

B3: Prolactin (Prl*), commercially obtained (ligand, UniProt P01236 29-227, looked up)
chain: LPICPGGAARCQVTLRDLFDRAVVLSHYIHNLSSEMFSEFDKRYTHGRGFITKAINSCHTSSLATPEDKEQAQQMNQKDFLSLIVSILRSWNEPLYHLVTEVRGMQEAPEAILSKAVEIEEQTKRLLEGMELIVSQVHPETKENEIYPVWSGLPSLQMADEESRLSAYYNLLHCLRRDSHKIDNYLKLLKCRIIHNNNC
notes: prolactin from Sino Biological; No catalogue number printed; source: bought: Sino Biological
Kd [6]: 23 ± 4 nM
